{"source": "paper PMC3072145", "binders": {"B1": {"name": "FAM-rA18 (ssRNA)", "RNA": "AAAAAAAAAAAAAAAAAA"}}, "key": {"[1]": {"target": "Hfq wt (Escherichia coli, UniProt P0A6X3 1-102)", "assay": "analytical ultracentrifugation"}, "[2]": {"target": "Hfq-NA (Escherichia coli, UniProt P0A6X3 1-102)", "assay": "analytical ultracentrifugation"}}}
{"binder": "B1", "values": [{"measurement": "binding result", "setting": "[1]", "value": "binds"}, {"measurement": "binding result", "setting": "[2]", "value": "binds"}]}
